In IntAct's records for PubMed 17525731:

How the values were obtained:
creb1_mouse Creb1 [1] = target: creb1_mouse Creb1 (UniProt Q01147)
creb1_mouse Creb1 [2] = target: creb1_mouse Creb1 (UniProt Q01147); remark: listed apart in the source

Chain of Creb1, Q01147-1 (Q01147 other isoform, or with tags, fused parts or gaps): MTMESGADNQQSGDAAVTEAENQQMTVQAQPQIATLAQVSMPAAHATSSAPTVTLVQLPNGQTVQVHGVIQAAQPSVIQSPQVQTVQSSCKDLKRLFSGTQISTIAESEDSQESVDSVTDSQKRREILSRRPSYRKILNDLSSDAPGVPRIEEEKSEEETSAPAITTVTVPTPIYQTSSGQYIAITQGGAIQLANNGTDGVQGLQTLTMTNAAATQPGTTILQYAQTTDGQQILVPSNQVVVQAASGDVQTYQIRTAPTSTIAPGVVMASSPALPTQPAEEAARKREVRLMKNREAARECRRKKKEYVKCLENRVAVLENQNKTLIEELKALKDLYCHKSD
Chain of creb1_mouse Creb1 (Q01147 whole entry): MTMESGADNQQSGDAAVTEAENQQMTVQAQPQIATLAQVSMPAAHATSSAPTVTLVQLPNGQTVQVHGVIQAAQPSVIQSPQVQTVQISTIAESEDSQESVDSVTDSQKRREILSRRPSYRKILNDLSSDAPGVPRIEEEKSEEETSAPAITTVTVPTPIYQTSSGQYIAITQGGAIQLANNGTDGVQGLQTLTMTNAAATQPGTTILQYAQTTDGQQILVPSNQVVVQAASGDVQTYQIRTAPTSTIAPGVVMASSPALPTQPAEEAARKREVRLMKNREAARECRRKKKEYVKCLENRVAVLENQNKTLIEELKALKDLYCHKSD

Substance | effect of a mutation on the interaction (creb1_mouse Creb1 [1]) | effect of a mutation on the interaction (Creb1, Q01147-1) | effect of a mutation on the interaction (creb1_mouse Creb1 [2])
Histone acetyltransferase p300 (Homo sapiens), Q09472 A634Q | disrupting interaction | – | –
Histone acetyltransferase p300 (Homo sapiens), Q09472 Y638A | disrupting interaction | – | –
Histone lysine acetyltransferase CREBBP (Mus musculus), P45481 Y650A | – | disrupting interaction | disrupting interaction

Other lines, results leading:

effect of a mutation on the interaction (creb1_mouse Creb1 [1]) | effect of a mutation on the interaction (Creb1, Q01147-1) | effect of a mutation on the interaction (creb1_mouse Creb1 [2]) | Substance
– | disrupting interaction | disrupting interaction | Histone lysine acetyltransferase CREBBP (Mus musculus), P45481 A654Q
disrupting interaction | – | – | Histone acetyltransferase p300 (Homo sapiens), Q09472 Y630A
– | disrupting interaction | disrupting interaction | Histone lysine acetyltransferase CREBBP (Mus musculus), P45481 Y658A
